{"source": "patent US12359223B2", "about": "“Systems and methods for modulating chromosomal rearrangements” (Editas Medicine, Inc., priority 2018, dated 2025)", "system": "chromosome 15 (B2M) and chromosome 14 (TRAC) cut sites", "assay": "Translocation rates induced by translocation promoting oligos", "type": "cell-based, human", "conditions": "Cas9/B2M12 and Cas9/TRAC5 RNPs 0.6 μM; average of plus and minus strand oligo; FIG. 11B", "method": "Two simultaneous DSBs were introduced in primary human T cells by nucleofection with Cas9/B2M (B2M12 gRNA) and Cas9/TRAC (TRAC5 gRNA) RNP complexes at a concentration of 0.6 μM, along with one of the translocation promoting oligos depicted in FIG. 11A.", "data": [{"molecule": "Dicentric oligo: translocation promoting ssODN, plus or minus strand, SEQ ID NOs: 16, 17 (nucleic acid, /note=“Description of Unknown Donor template sequence”) chain 1: CACGCGTTTAATATAAGTGGAGGCGTCGCGCTGGCGGGCATTCCTGAAGCTGACAGCATTCGGGCCGAGATGATCAGGGTTCTGGATATCTGTGGGACAAGAGGATCAGGGTTAGGACATGATCTCATTTCCCTCTTTGCCCC chain 2: GGGGCAAAGAGGGAAATGAGATCATGTCCTAACCCTGATCCTCTTGTCCCACAGATATCCAGAACCCTGATCATCTCGGCCCGAATGCTGTCAGCTTCAGGAATGCCCGCCAGCGCGACGCCTCCACTTATATTAAACGCGTG", "values": [{"measurement": "translocation products enhanced", "value": "enhanced the formation of Dicentric and Acentric translocation products"}]}]}
